Entries after “also recorded” stand apart in the source; their conditions may differ.
Key:
[1] = molecular target: CD44 as expressed on human HNSCC cell lines (T.Tn, SCC-15, Detroit-562, CAL 27) (human) (UniProt P16070); test: flow cytometry on CAL 27 cells, antibody at 20 ug/mL, duplicate samples
T.Tn HNSCC cell line = test: FACS binding to HNSCC cell line T.Tn; set-up: species or system human; conditions: antibody 20 μg/mL on ice 30 minutes
Description: (§1) The binding of chPTA-4621 and huPTA-4621 to HNSCC cell lines T.Tn, SCC-15, and Detroit-562 was assessed by flow cytometry (FACS). Cells were prepared for FACS by initially washing the cell monolayer with DPBS (without Ca^++ and Mg^++). Cell dissociation buffer (INVITROGEN, Burlington, ON; for T.Tn, SCC-15 and Detroit-562) was then used to dislodge the cells from their cell culture plates at 37° C. After centrifugation and collection, the cells were resuspended in DPBS containing MgCl2, CaCl2, and 2 percent fetal bovine serum at 4° C. (staining media) and counted, aliquoted to appropriate cell density, spun down to pellet the cells and resuspended in staining media at 4° C. in the presence of test antibodies (chimeric or humanized PTA-4621) or control antibodies (isotype control, anti-EGFR (C225; T.Tn, SCC-15 and Detroit-562). Isotype control and test antibodies were assessed at 20 μg/mL on ice for 30 minutes. For detection of bound antibody, an Alexa Fluor 546 conjugated secondary antibody was used. Prior to the addition of the secondary antibody, the cells were washed once with staining media. The secondary antibody in staining media was then added according to manufacturer's directions. […] Flow cytometric acquisition of the T.Tn, SCC-15 and Detroit-562 cells was assessed by running samples on a FACScan using the CellQuest software (BD Biosciences, Oakville, ON). […]

SCC-15 HNSCC cell line = test: FACS binding to HNSCC cell line SCC-15; set-up: species or system human; conditions: antibody 20 μg/mL on ice 30 minutes
Description: as §1

[2] = tested on: Detroit-562 HNSCC cell line; test: FACS binding to HNSCC cell line Detroit-562; set-up: species or system human; conditions: antibody 20 μg/mL on ice 30 minutes
Description: as §1

T.Tn HNSCC xenograft = test: established T.Tn HNSCC xenograft model; type: in vivo; conditions: 20 mg/kg i.p. three times per week
Description: With reference to FIGS. 2 and 3, 6 to 8 week old female SCID mice were implanted with 10 million T.Tn cells in 100 microliters PBS solution injected subcutaneously in the right flank. The mice were randomly divided into 2 treatment groups of 10. When the average tumor volume of the mice reached approximately 264-268 mm^3, 20 mg/kg of chPTA-4621 test antibody or buffer control was administered intraperitoneally to each cohort in a volume of 300 microliters after dilution from the stock concentration with a diluent that contained 2.7 mM KCl, 1 mM KH2PO4, 137 mM NaCl and 20 mM Na2HPO4. The antibody and control samples were then administered three times per week for the duration of the study. Tumor growth was measured about every 7 days with calipers. The study was completed after ten doses of antibody. Body weights of the animals were recorded once per week for the duration of the study. At the end of the study all animals were euthanized according to CCAC guidelines.

[3] = tested on: human breast cancer, liver cancer and prostate cancer xenografts; conditions: preventative and established models; cited from earlier work

Molecule: Humanized PTA-4621 (RO5429083) (antibody)
- fold binding compared to the humanized IgG1 isotype control [1]: 37 fold

B1: chPTA-4621: chimeric PTA-4621 comprising VH and VL domains of SEQ ID NO:1 and SEQ ID NO:2 (antibody, V domains shown)
VH: EVKLLESGGGLVQPGGSLKLSCATSGFDFSRYWMSWVRQAPGKGLEWIGEVNPDSTSINYTPSLKDQFIISRDNAKNTLDLQMSKVSSEDTALYYCTRPNYYGSRYHYYAMDYWGQGTSVTVSS
VL: DIQMTQTTSSLSVSLGDRVTINCRASQDINNYLNWYQQKPDGTVKLLIYYTSRLHSGVPSRFSGSGSGTDFSLTISNLEKEDVATYFCQQGSTLPFTFGSGTKLEIK
modifications: human constant regions without entry; Synthetically generated peptide
- binding to T.Tn cell line (FACS) (T.Tn HNSCC cell line): bind
- binding to SCC-15 cell line (FACS) (SCC-15 HNSCC cell line): bind
- binding to Detroit-562 cell line (FACS) [2]: bind
- clinical signs of toxicity / tolerability (T.Tn HNSCC xenograft): no clinical signs of toxicity; also recorded: well-tolerated
- mean body weight between the groups at end of treatment period (T.Tn HNSCC xenograft): no significant difference
- reduction of tumor growth compared to buffer treated group (T.Tn HNSCC xenograft; ten doses, day 105, p=0.0068): 54.9%

B2: PTA-4621: murine monoclonal anti-CD44 antibody produced by hybridoma ATCC PTA-4621; VH SEQ ID NO:1, VL SEQ ID NO:2 (antibody, V domains shown)
VH: EVKLLESGGGLVQPGGSLKLSCATSGFDFSRYWMSWVRQAPGKGLEWIGEVNPDSTSINYTPSLKDQFIISRDNAKNTLDLQMSKVSSEDTALYYCTRPNYYGSRYHYYAMDYWGQGTSVTVSS
VL: DIQMTQTTSSLSVSLGDRVTINCRASQDINNYLNWYQQKPDGTVKLLIYYTSRLHSGVPSRFSGSGSGTDFSLTISNLEKEDVATYFCQQGSTLPFTFGSGTKLEIK
modifications: Synthetically generated peptide
- anti-tumor effects in pre-clinical xenograft models [3]: significant anti-tumor effects

Source: patent US20150374848A1, “Methods for the Treatment of Head and Neck Squamous Cell Carcinoma” (Vigilant Biosciences, Inc., priority 2010, published 2015)
